# Values of other authors, collected in patent US20200069786A1, “COMPOSITION AND PROCESS FOR PREPARING VACCINE” (TREOS BIO ZRT., priority 2018, published 2020).
# Where two headings read alike, the source gives them in different places.
# Tested on: TSA
# [1] = TSA expression rate in GASTRIC cancer
# [2] = TSA expression rate in HEAD and NECK
# [3] = TSA expression rate in LEUKEMIAS
# [4] = TSA expression rate in MELANOMA
# [5] = TSA expression rate in PEDIATRIC
molecule,measurement,setting,value
"MAGE-A2 (protein, UniProt P43356 1-314, looked up) Melanoma-associated antigen 2: MPLEQRSQHCKPEEGLEARGEALGLVGAQAPATEEQQTASSSSTLVEVTLGEVPAADSPSPPHSPQGASSFSTTINYTLWRQSDEGSSNQEEEGPRMFPDLESEFQAAISRKMVELVHFLLLKYRAREPVTKAEMLESVLRNCQDFFPVIFSKASEYLQLVFGIEVVEVVPISHLYILVTCLGLSYDGLLGDNQVMPKTGLLIIVLAIIAIEGDCAPEEKIWEELSMLEVFEGREDSVFAHPRKLLMQDLVQENYLEYRQVPGSDPACYEFLWGPRALIETSYVKVLHHTLKIGGEPHISYPPLHERALREGEE",TSA Expression Rate (ER),BRAIN,28%
same,TSA Expression Rate (ER),HCC,25%
same,TSA Expression Rate (ER),LUNG,40%
same,TSA Expression Rate (ER),OVARIAN,7%
same,TSA Expression Rate (ER),THYROID,9%
same,Expression Rate (ER) %,TSA expression rate in BLADDER cancer,25%
same,Expression Rate (ER) %,TSA expression rate in CRC,18%
same,Expression Rate (ER) %,TSA expression rate in Esophageal,53%
same,Expression Rate (ER) %,[1],31%
same,Expression Rate (ER) %,[2],38%
same,Expression Rate (ER) %,TSA expression rate in Kidney,7%
same,Expression Rate (ER) %,[3],11%
same,Expression Rate (ER) %,[4],62%
same,Expression Rate (ER) %,[5],60%
same,Expression Rate (ER) %,TSA expression rate in PROSTATE cancer,18%
"SSX-5 (protein, UniProt O60225 1-188, looked up) Protein SSX5: MNGDDAFVRRPRVGSQIPEKMQKAFDDIAKYFSEKEWEKMKASEKIIYVYMKRKYEAMTKLGFKATLPPFMRNKRVADFQGNDFDNDPNRGNQVEHPQMTFGRLQGIFPKITPEKPAEEGNDSKGVPEASGPQNNGKQLRPSGKLNTSEKVNKTSGPKRGKHAWTHRVRERKQLVIYEEISDPQEDDE",TSA Expression Rate (ER),BRAIN,0%
same,TSA Expression Rate (ER),BREAST,0%
same,TSA Expression Rate (ER),HCC,37%
same,TSA Expression Rate (ER),OVARIAN,0%
same,TSA Expression Rate (ER),THYROID,0%
same,Expression Rate (ER) %,TSA expression rate in CRC,2%
same,Expression Rate (ER) %,[1],0%
same,Expression Rate (ER) %,[2],7%
same,Expression Rate (ER) %,TSA expression rate in Kidney,0%
same,Expression Rate (ER) %,[3],24%
same,Expression Rate (ER) %,TSA expression rate in LUNG cancer,4%
same,Expression Rate (ER) %,[4],5%
"XAGE-1 (protein, UniProt Q9HD64 1-81, looked up) X antigen family member 1: MESPKKKNQQLKVGILHLGSRQKKIRIQLRSQCATWKVICKSCISQTPGINLDLGSGVKVKIIPKEEHCKMPEAGEEQPQV",TSA Expression Rate (ER),BRAIN,18%
same,TSA Expression Rate (ER),BREAST,58%
same,TSA Expression Rate (ER),HCC,33%
same,TSA Expression Rate (ER),LUNG,25%
same,TSA Expression Rate (ER),OVARIAN,5%
same,Expression Rate (ER) %,[2],40%
same,Expression Rate (ER) %,[4],7%
same,Expression Rate (ER) %,[5],53%
"SSX-3 (protein, UniProt Q99909 1-188, looked up) Protein SSX3: MNGDDTFARRPTVGAQIPEKIQKAFDDIAKYFSKEEWEKMKVSEKIVYVYMKRKYEAMTKLGFKAILPSFMRNKRVTDFQGNDFDNDPNRGNQVQRPQMTFGRLQGIFPKIMPKKPAEEGNVSKEVPEASGPQNDGKQLCPPGKPTTSEKINMISGPKRGEHAWTHRLRERKQLVIYEEISDPEEDDE",TSA Expression Rate (ER),BRAIN,0%
same,TSA Expression Rate (ER),BREAST,0%
same,TSA Expression Rate (ER),OVARIAN,0%
same,TSA Expression Rate (ER),PANCREATIC,0%
same,TSA Expression Rate (ER),THYROID,0%
same,Expression Rate (ER) %,TSA expression rate in CRC,0%
same,Expression Rate (ER) %,TSA expression rate in Kidney,0%
same,Expression Rate (ER) %,[3],4%
